From the supplement of paper PMC9112550, “Optimization of the antimicrobial peptide Bac7 by deep mutational scanning” (BMC Biology, 2022)

Test system: Escherichia coli TOP10
Test: shrunken log2 fold change of peptide-encoding DNA abundance (4.5 h post-induction vs induction); higher = less antimicrobial activity (less host growth inhibition)
Details: time post-induction: 4.5 h; library: site-saturation at positions 5, 18, 19, 20
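Further: peptides expressed intracellularly from a pBAD plasmid library in pooled LB shake-flask culture, induced with 0.3% L-arabinose, DNA abundance read by NGS, three biological replicates, DESeq2 with apeglm shrinkage.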

| Sequence | shrunken log2 fold change |
| --- | --- |
| RRIRDRPPRLPRPRPRPPVPPRP | 0.635 |
| RRIRYRPPRLPRPRPRPGTLPRP | -0.803 |
| RRIRNRPPRLPRPRPRPEIPPRP | -0.113 |
| RRIRPRPPRLPRPRPRPWKAPRP | -0.133 |
| RRIRFRPPRLPRPRPRPDHGPRP | 0.0405 |
| RRIRTRPPRLPRPRPRPGPNPRP | -0.0314 |
| RRIRRRPPRLPRPRPRPDLAPRP | 0.197 |
| RRIRPRPPRLPRPRPRPTWVPRP | 0.0694 |
| RRIRIRPPRLPRPRPRPCRSPRP | -0.365 |
| RRIRQRPPRLPRPRPRPFNAPRP | -0.233 |
| RRIRKRPPRLPRPRPRPHGEPRP | 0.428 |
| RRIRARPPRLPRPRPRPMTLPRP | 0.151 |
| RRIRSRPPRLPRPRPRPDICPRP | -0.0721 |
| RRIRKRPPRLPRPRPRPNTFPRP | -0.0899 |
| RRIRQRPPRLPRPRPRPHWIPRP | -0.452 |
| RRIRHRPPRLPRPRPRPRELPRP | 0.234 |
| RRIRCRPPRLPRPRPRPMHHPRP | -0.796 |
| RRIRCRPPRLPRPRPRPGASPRP | 0.519 |
| RRIRRRPPRLPRPRPRPRIAPRP | 0.652 |
| RRIRQRPPRLPRPRPRPKQPPRP | 0.0884 |
| RRIRARPPRLPRPRPRPHSNPRP | -0.251 |
| RRIRHRPPRLPRPRPRPNDDPRP | -0.259 |

| Sequence | shrunken log2 fold change |
| --- | --- |
| RRIRTRPPRLPRPRPRPIAFPRP | -0.0138 |
| RRIRRRPPRLPRPRPRPAVHPRP | 0.321 |
| RRIRRRPPRLPRPRPRPMDSPRP | -0.0307 |
| RRIRMRPPRLPRPRPRPHRPPRP | 0.066 |
| RRIRNRPPRLPRPRPRPFYQPRP | -0.8 |
| RRIRARPPRLPRPRPRPVAEPRP | 0.871 |
| RRIRWRPPRLPRPRPRPHFIPRP | -0.349 |
| RRIRNRPPRLPRPRPRPSHYPRP | -1.22 |
| RRIRKRPPRLPRPRPRPRHKPRP | 0.458 |
| RRIRMRPPRLPRPRPRPEFEPRP | -0.0141 |
| RRIRCRPPRLPRPRPRPGARPRP | 0.394 |
| RRIRQRPPRLPRPRPRPGGLPRP | 0.28 |
| RRIRMRPPRLPRPRPRPNFMPRP | -0.0364 |
| RRIRPRPPRLPRPRPRPMHWPRP | 0.335 |
| RRIRSRPPRLPRPRPRPEVVPRP | 0.471 |
| RRIRERPPRLPRPRPRPTKIPRP | -0.19 |
| RRIRHRPPRLPRPRPRPRINPRP | -0.0802 |
| RRIRQRPPRLPRPRPRPKQDPRP | 0.0446 |
| RRIRLRPPRLPRPRPRPSRCPRP | 0.05 |
| RRIRKRPPRLPRPRPRPAPSPRP | 0.748 |
| RRIRFRPPRLPRPRPRPMVRPRP | 0.0406 |
| RRIRSRPPRLPRPRPRPDTHPRP | -0.448 |

| Sequence | shrunken log2 fold change |
| --- | --- |
| RRIRCRPPRLPRPRPRPVLWPRP | 0.136 |
| RRIRGRPPRLPRPRPRPQGIPRP | -0.128 |
| RRIRDRPPRLPRPRPRPCNMPRP | -0.225 |
| RRIRCRPPRLPRPRPRPCIGPRP | -0.204 |
| RRIRSRPPRLPRPRPRPSNNPRP | -0.66 |
| RRIRKRPPRLPRPRPRPYWTPRP | -0.26 |
| RRIRRRPPRLPRPRPRPKWAPRP | 0.0296 |
| RRIRSRPPRLPRPRPRPYLGPRP | -0.204 |
| RRIRVRPPRLPRPRPRPIHTPRP | -0.305 |
| RRIRQRPPRLPRPRPRPQSKPRP | -0.574 |
| RRIRMRPPRLPRPRPRPVCQPRP | 0.13 |
| RRIRPRPPRLPRPRPRPQTYPRP | -0.256 |
| RRIRVRPPRLPRPRPRPVVGPRP | 0.126 |
| RRIRQRPPRLPRPRPRPCFGPRP | 0.0162 |
| RRIRQRPPRLPRPRPRPNATPRP | 0.251 |
| RRIRWRPPRLPRPRPRPTAGPRP | 0.965 |
| RRIRQRPPRLPRPRPRPQALPRP | 0.0286 |
| RRIRPRPPRLPRPRPRPPAAPRP | 0.54 |
| RRIRERPPRLPRPRPRPTITPRP | -0.598 |
| RRIRWRPPRLPRPRPRPCSAPRP | 0.0988 |
| RRIRVRPPRLPRPRPRPRPQPRP | 0.365 |
| RRIRIRPPRLPRPRPRPQRLPRP | 0.0966 |

| Sequence | shrunken log2 fold change |
| --- | --- |
| RRIRWRPPRLPRPRPRPTHQPRP | -0.0304 |
| RRIRLRPPRLPRPRPRPRRPPRP | 0.39 |
| RRIRVRPPRLPRPRPRPHVYPRP | -0.13 |
| RRIRMRPPRLPRPRPRPYSFPRP | -0.266 |
| RRIRDRPPRLPRPRPRPIFCPRP | -0.0484 |
| RRIRRRPPRLPRPRPRPSKAPRP | -0.0721 |
| RRIRFRPPRLPRPRPRPLNTPRP | -0.483 |
| RRIRDRPPRLPRPRPRPLVFPRP | -0.0186 |
| RRIRKRPPRLPRPRPRPIIDPRP | -0.139 |
| RRIRTRPPRLPRPRPRPVFTPRP | -0.105 |
| RRIRGRPPRLPRPRPRPLHNPRP | 0.249 |
| RRIRIRPPRLPRPRPRPVEKPRP | -0.126 |
| RRIRERPPRLPRPRPRPDTDPRP | 0.0402 |
| RRIRFRPPRLPRPRPRPSQWPRP | -0.171 |
| RRIRSRPPRLPRPRPRPELLPRP | -0.111 |
| RRIRNRPPRLPRPRPRPDYYPRP | -1.4 |
| RRIRGRPPRLPRPRPRPDMYPRP | 0.0675 |
| RRIRLRPPRLPRPRPRPMQMPRP | -0.11 |
| RRIRMRPPRLPRPRPRPAMSPRP | 0.177 |
| RRIRRRPPRLPRPRPRPCLHPRP | 0.0897 |
| RRIRHRPPRLPRPRPRPYTKPRP | 0.0561 |
| RRIRARPPRLPRPRPRPMIFPRP | 0.292 |

| Sequence | shrunken log2 fold change |
| --- | --- |
| RRIRPRPPRLPRPRPRPHMPPRP | -0.154 |
| RRIRVRPPRLPRPRPRPNTWPRP | -0.197 |
| RRIRGRPPRLPRPRPRPDRLPRP | -0.00118 |
| RRIRPRPPRLPRPRPRPQWIPRP | 0.0662 |
| RRIRCRPPRLPRPRPRPIDDPRP | -0.0196 |
| RRIRNRPPRLPRPRPRPVIQPRP | 0.0549 |
| RRIRVRPPRLPRPRPRPAFMPRP | -0.352 |
| RRIRTRPPRLPRPRPRPSLQPRP | -0.0953 |
| RRIRGRPPRLPRPRPRPNLLPRP | 0.485 |
| RRIRRRPPRLPRPRPRPLCVPRP | 0.537 |
| RRIRSRPPRLPRPRPRPKGMPRP | -0.0819 |
| RRIRFRPPRLPRPRPRPSMPPRP | -0.331 |
| RRIRNRPPRLPRPRPRPAKPPRP | -0.00229 |
| RRIRLRPPRLPRPRPRPRMIPRP | 0.119 |
| RRIRVRPPRLPRPRPRPYFEPRP | -0.26 |
| RRIRIRPPRLPRPRPRPQRMPRP | -0.387 |
| RRIRDRPPRLPRPRPRPLEAPRP | 0.679 |
| RRIRVRPPRLPRPRPRPWKNPRP | 0.0224 |
| RRIRVRPPRLPRPRPRPIYIPRP | -0.755 |
| RRIRTRPPRLPRPRPRPYVRPRP | 0.0143 |
| RRIRDRPPRLPRPRPRPARYPRP | 0.0754 |
